Data reported in PMC3017428 (Molecular cell, 2010).
Numbering of substitutions follows the chain as printed. Names may count otherwise.

B1: Spn1(148–293) (domain or fragment, S. cerevisiae, UniProt Q06505 148-293, looked up)
chain: DDLEQYLDEKILRLKDEMNIAAQLDIDTLNKRIETGDTSLIAMQKVKLLPKVVSVLSKANLADTILDNNLLQSVRIWLEPLPDGSLPSFEIQKSLFAALNDLPVKTEHLKESGLGRVVIFYTKSKRVEAQLARLAEKLIAEWTRPI

What was measured:
Test in all cases: ITC
[1] = biological target: T1, Spt6(239–1117) (S. cerevisiae, UniProt P23615 239-1117)
T1 sequence (looked up): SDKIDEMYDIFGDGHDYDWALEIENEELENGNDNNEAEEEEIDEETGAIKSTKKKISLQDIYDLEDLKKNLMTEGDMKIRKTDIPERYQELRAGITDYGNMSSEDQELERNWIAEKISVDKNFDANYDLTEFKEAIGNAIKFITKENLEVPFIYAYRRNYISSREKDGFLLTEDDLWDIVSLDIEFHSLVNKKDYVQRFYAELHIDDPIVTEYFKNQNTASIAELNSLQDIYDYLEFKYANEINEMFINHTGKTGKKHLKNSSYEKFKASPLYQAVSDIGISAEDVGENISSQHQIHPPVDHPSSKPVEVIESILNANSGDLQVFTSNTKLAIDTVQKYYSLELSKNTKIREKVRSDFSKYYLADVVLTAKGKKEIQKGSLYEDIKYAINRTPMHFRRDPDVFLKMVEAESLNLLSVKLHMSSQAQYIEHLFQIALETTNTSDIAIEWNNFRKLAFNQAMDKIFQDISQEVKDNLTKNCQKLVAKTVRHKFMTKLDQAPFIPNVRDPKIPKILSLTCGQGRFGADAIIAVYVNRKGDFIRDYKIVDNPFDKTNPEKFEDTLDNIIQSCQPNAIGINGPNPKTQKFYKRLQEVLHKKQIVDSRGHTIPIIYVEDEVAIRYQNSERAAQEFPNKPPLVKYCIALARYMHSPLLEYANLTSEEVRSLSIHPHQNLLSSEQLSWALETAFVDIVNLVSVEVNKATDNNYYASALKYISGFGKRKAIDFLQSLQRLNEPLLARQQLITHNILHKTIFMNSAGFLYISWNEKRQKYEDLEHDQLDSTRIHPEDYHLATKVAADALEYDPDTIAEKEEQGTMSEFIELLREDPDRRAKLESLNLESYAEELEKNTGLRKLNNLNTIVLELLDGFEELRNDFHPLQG

[2] = biological target: B1
[3] = biological target: T2, Spn1(148–293)-R263D (S. cerevisiae, UniProt Q06505 148-293, R263D)
T2 sequence (looked up): B1 chain with R116D

B1 was tested. Which “stoichiometry N” value [1] did it give?
Its value is 1.

How did the “stoichiometry N” value [2] turn out when SDKIDEMYDIFGDGHDYDWALEIENEELEN (domain or fragment, S. cerevisiae, UniProt P23615 239-268, looked up) [Spt6(239–268)] was run?
The value was 1.

And the Kd [3]?
The Kd was 30 µM.

How did the Kd [2] turn out when SDKIDEMYDIKGDGHDYDWALEIENEELEN (domain or fragment, S. cerevisiae, UniProt P23615 239-268, looked up) [Spt6(239–268)-F249K] was run?
Its Kd is 11 µM.
